# Results taken from patent US20240294650A1 (Alector, published 2024).
# T1: recombinant murine MerTK extracellular domain (mouse, UniProt Q60805 19-497)
# T1 construct: also called Mouse MerTK; murine MerTK ECD; not shown: polyHis or TEVS/Thrombin/murine IgG2a-Fc tag
# T1 sequence: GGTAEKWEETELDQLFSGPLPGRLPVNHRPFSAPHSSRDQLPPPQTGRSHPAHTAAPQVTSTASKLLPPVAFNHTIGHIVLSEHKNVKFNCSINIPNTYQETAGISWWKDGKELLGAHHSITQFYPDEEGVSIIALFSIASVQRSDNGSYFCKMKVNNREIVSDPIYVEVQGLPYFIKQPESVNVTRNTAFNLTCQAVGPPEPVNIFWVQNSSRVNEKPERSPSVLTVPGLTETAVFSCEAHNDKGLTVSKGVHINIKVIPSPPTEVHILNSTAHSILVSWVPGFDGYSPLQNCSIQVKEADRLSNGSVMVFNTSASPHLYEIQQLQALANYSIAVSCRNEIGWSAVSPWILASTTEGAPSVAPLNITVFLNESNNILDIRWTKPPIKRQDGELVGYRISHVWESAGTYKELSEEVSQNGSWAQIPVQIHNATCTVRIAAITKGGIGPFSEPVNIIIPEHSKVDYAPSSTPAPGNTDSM
# T2: MerTK C-terminal ECD Half-and-half chimera (human)
# T2 construct: tested as culture supernatant; also called MerTK C-term half-and-half chimera; MerTK C-terminal ECD (FN1-FN2-JM) + Axl N-terminal ECD (NT-Ig1-Ig2)
# T2 chain: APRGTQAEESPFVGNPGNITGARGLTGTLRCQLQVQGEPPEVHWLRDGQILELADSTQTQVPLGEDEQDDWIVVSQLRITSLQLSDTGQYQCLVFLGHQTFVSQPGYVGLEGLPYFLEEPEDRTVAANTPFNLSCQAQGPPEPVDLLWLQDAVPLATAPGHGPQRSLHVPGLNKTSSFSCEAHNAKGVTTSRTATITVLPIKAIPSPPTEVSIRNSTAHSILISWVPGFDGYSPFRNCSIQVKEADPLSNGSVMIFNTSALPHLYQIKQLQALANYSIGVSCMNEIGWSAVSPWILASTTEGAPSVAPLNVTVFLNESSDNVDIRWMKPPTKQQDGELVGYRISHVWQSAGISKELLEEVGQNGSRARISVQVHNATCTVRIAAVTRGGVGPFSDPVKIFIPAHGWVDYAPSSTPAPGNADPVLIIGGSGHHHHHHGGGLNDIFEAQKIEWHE
# T3: His tag-conjugated recombinant ProS (human, UniProt P07225 42-676, limits assumed)
# T3 construct: bought; also called Protein S; ProS1 (R&D systems, Cat #9489-PS-100)
# T3 sequence (looked up): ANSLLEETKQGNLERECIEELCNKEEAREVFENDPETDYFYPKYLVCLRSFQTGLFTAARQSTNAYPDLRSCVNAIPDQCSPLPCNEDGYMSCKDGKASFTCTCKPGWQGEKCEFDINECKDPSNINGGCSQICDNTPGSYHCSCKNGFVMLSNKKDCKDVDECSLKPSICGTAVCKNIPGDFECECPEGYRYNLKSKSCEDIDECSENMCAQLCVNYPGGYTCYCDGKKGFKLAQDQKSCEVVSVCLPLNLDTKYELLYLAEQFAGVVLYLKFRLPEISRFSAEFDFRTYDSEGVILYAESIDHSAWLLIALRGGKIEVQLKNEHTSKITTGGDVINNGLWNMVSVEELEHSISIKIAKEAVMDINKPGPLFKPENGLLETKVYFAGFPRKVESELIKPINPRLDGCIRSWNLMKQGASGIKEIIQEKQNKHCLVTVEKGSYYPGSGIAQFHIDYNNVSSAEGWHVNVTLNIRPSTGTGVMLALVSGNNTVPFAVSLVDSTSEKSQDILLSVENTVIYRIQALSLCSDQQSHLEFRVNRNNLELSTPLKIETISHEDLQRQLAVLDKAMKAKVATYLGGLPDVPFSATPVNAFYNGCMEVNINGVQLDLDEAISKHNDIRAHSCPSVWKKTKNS
# Legend:
# [1] = biological target: T1, recombinant murine MerTK extracellular …; experiment: SPR Carterra LSA
# [2] = biological target: T2, MerTK C-terminal ECD Half-and-half …; experiment: SPR, construct supernatant over immobilised Ab
# Procedure, shortened: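 Domain-swapped and deletion constructs of MerTK and Axl, supplied as diluted cell supernatants, were tested against immobilised anti-MerTK antibodies by surface plasmon resonance, with glycine pH2.0 regeneration; sensorgrams gave construct binding patterns for a domain map.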
# [3] = biological target: T3, His tag-conjugated recombinant ProS; experiment: ELISA, captured Ab, ProS-His 10 ug/ml, no MerTK
Ratio of KD for Mouse vs Human MerTK [1] [ratio],binding result [2],binding result [3],Binder
0.13,no binding,–,"MTK-212 (antibody, human IgG1, V domains shown) VH: QVQLQQSGPELVKPGASVKISCKASGYAFSSSWVNWVKQRPGKGLEWIGRIYPGDGDSNYNGNFKGKATLTADKSSNTAYLQLSSLTSEDSAVYFCARKSHFIYYTLDYWGQGTPVTVSS VL: DIVMTQSHKFKSTSVGDRVSIACKASQDVGTSVAWYQQKPGKSPKLLIYWASSRHTGVPDRFTGSGSGTDFTLTISNVQSEDLTDYFCQQYSTYPYTFGGGTKLEIK"
–,–,binds,"MTK-211 (antibody, human IgG1, V domains shown) VH: QVQLQQSGAELMKPGASVKLSCKATGYTFTGYWIEWVKQRPGHGLEWIGEILPGSGGSNYNEKFKGKATFTADTSSNTAYIQLSSLTTEDSAIYCCARGEPSYFSDAGFAYWGQGTLVTVSA VL: QIVLTQSPAVMSASPGEKVTMTCSASSSITYMHWYQQKPGTSPKRWIYDTSKLASGVPARFSGSGSGTSYFLTISSMEAEDVATYYCHQRSTYPYTFGGGTKLEIM"
–,no binding,–,"MTK-220 (antibody, V domains shown) VH: EVQLVESGGGLVKPGGSLKLSCAASGFTFSDYGMHWVRQAPEKGLEWVAFISGGSGTIYYEDTVKGRFTISRDNAKNTLFLQMTSLRSEDTAMYYCTRGGNYFDYWGQGTTLTVSS VL: NIMLTQSPSSLAVSAGEKVTMTCKSSQSVLYSSNQKNYLAWYQQKPGQSPKLLIYWASTRESGVPDRFTGSGSGTDFTLTISNVQAEDLAVYYCHQYFSSWTFGGGTKLEIK"
–,no binding,–,"MTK-204 (antibody, human IgG1, V domains shown) VH: EVQLVESGGGLVKPGGSLKLSCAASGFTFSDYGMHWVRQAPEKGLEWVAYISSGTSTIYYEDTVKGRFTISRDNAKNTLFLQMTSLRSEDTAMYYCARGGLLFDYWGQGTTLTVSS VL: NIMMTQSPSSLAVSAGEKVTMSCKSSQSVLYSSNQKNYLAWYQQKPGQSPKLLIQWASTRESGVPDRFTGSGSETDFTLTIRSVQAEDLAVYYCHQYFSSWTFGGGTKLEIK"
–,no binding,–,"MTK-202 (antibody, human IgG1, V domains shown) VH: EVQLVESGGGLVKPGGSLKLSCAASGFTFSDFGMHWVRQVPEKGLEWVAFISGGSNTIYYTDTVKGRFTISRDNAKNTLFLQMTSLRSEDTAMYYCVRNGNSFAYWGQGTLVTVSA VL: NIMMTQSPSSLAVSAGEKVTMNCKSSQSVLYSSNQKNYLAWYQQKPGQSPKLLIYWASTRESGVPDRFTGSGSGTDFTLTISNIQAEDLAIYYCHQYFFSWTFGGGTKLEIK"
35.4,–,–,"MTK-209 (antibody, human IgG1, V domains shown) VH: QVQLQQPGAELVKPGASVKVSCKASGYTFTNYWIHWVKQRPGQGLEWIGRIHPFDSEPNYNQKFKGKATLTVDKSSSTAYMHLTSLTSEDSAVYYCALASFAYWGQGTLVTVSA VL: ETTVTQSPASLSMAMGEKATIRCITSTDIDDKMNWYQQKPGKPPKLLISAGNTLRPGVPSRFSSSGYGTDFVLTVENMLSEDVADYYCLQGGALPLTFGSGTKLEIK"
12.5,–,–,"MTK-203 (antibody, human IgG1, V domains shown) VH: QVQLQQPGAELVKPGASVKVSCKASGYTFTNYWMHWVKQRPGQGLEWIGRIHPFDTETNDNQKFKGKATLTVDKSSSTAYMQLSSLTSEDSAVYYCVIPANGGFAYWGQGTLVTVSA VL: ETTVTQSPASLSVATGEKVTIRCITSTDIGDDMNWYQQKPGEPPKVLISEGNSLRPGVPSRFSSSGYGTDFVFTIENTLSEDVADYFCLQSDNLPLTFGSGTKLEIK"
–,no binding,–,"MTK-225 (antibody, human IgG1, V domains shown) VH: EVQLQQSGPELVKPGASVKIFCKASGYTFTAYNMDWVKQSHGKSLEWIGDINPNNGGTIYNQKFKGKATLTVDKSSSTAYMELRSLTSEDTAVYYCARRRRYGNTYYWYFDVWGTGTTVTVSS VL: DIQMTQSPASLSVSVGETVTITCRASENIYSSLAWYQQKQGKSPQLLVYAATNLADGVPSRFSGSGSGTQFYLKINGLQSEDFGSYYCQHFWGTSYTFGGGTKLEIK"
–,–,binds,"MTK-207 (antibody, human IgG1, V domains shown) VH: QVQLKESGPGLVAPSQSLSITCTVSGISLTSYGVSWVRQPPGKGLEWLGIIWGDGSTNYHSALISRLSISKDNSKSQVFLKLNSLQTDDTATYYCAKGRYGNYEDWYFDVWGTGTTVTVSS VL: DIQMTQSPASLSASVGETVTITCRASGNIHNYLAWYQQKQGKSPQLLVYNAKTLAAGVPSRFSGSGSGTQYSLKINSLQPEDFGSYYCQHFWSIPLTFGAGTKLELK"
–,no binding,–,"MTK-223 (antibody, human IgG1, V domains shown) VH: DVQLQESGPGLVKPSQSLSLTCSVTGYSITSGYYWNWIRQFPGNKLEWMGYISYDGTNNYNPSLKNRISITRDTSENQFFLKLNSVTTEDTATYFCVRGAGYWGQGTTLTVSS VL: not shown"
0.08,–,–,"MTK-227 (antibody, human IgG1, V domains shown) VH: EVKLVESGGGLVQPGGSLSLSCAASGFTFTDNYMTWVRQPPGKALEWLGFSRNKANGYTTEYSASVKGRFTISRDSSQSILYLQMNALRAEDSGTYYCARFPPHYYAGGYFDVWGTGTTVTVSS VL: DIQMTQSPASLSASVGETVTITCRASENIYSYLAWYQQKQGKSPQLLVYNAKTLAEGVPSRFSGSGSGTQFSLKINSLQPADFGSYYCQHYYRTPPTFGGGTKLEIK"
3.5,–,–,"MTK-230 (antibody, human IgG1, V domains shown) VH: EVQLQQSGPELVKPGASVRIPCKASGYTFSDYNMDWVKQSHGKSLEWIGNINPNIGGTIYSQKFKGKATLTVDKSSSTAYMELRSLTSEDTAVYYCARGDYGFASWGQGTLVTVSA VL: DIVLTQSPASLTVSLGQRATISCRASRSVSTSGYSYMHWYQQKPGQPPKLLIYLASNLESGVPARFSGSRSGTDFTLNIHPVEEEDAATYYCQHSREYPFTFGSGTKLEIK"
0.04,–,–,"MTK-228 (antibody, human IgG1, V domains shown) VH: QDQLQQSGPELVKPGASVKISCKASGYSFTSYYIHWVKQRPGQGLEWVGWIFPGNGNTKYNERFKGKATLTADTSSSTAYMQLSSLTSEDSAVYYCARLGLIYALDYWGQGTSVTVSS VL: DAVMTQTPLSLPVSLGDQASISCRSSQSLENSNGNTYLHWYLQKPGQSPQLLIYRVSNRFSGVLDRFSGSGSGTDFTLKISRVEAEDLGVYFCLQVTHVPFTFGSGTKLEIK"
0.1,no binding,–,"MTK-218 (antibody, human IgG1, V domains shown) VH: QVQLQQSGPELVKPGTSVKISCKASGYSFTSYYIHWVKQRPGQGLDWIGWIFPGNRNTQYNEKFKGKATLTADTSSSTAYMQLSSLTSEDSAVYYCARLGLIYALDYWGQGTSVTVSS VL: DAVMTQTPLSLPVSLGDQASISCRSSQSLENSNGHTYLHWYLQKPGQSPQLLIYRVSNRFSGVQDRFSGSGSGTDFTLKISRVEAEDLGVYFCLQVTHVPFTFGSGTKLEIK"
0.05,no binding,–,"MTK-226 (antibody, human IgG1, V domains shown) VH: QVQLQQSGPELVKPGASVKISCKASGYSFTSYYIHWVKQRPGQGLEWIGWIFPGNGNTKYNENFRGKATLTADTSSSTAYMQLSSLTSEDSAVYYCARLGLIYALDYWGQGTSVTVSS VL: DAVMTQTPLSLPVSLGDQASISCRSSQSLESSNGNTYLHWYLQKPGQSPQLLIYRVSNRFSGVLDRFSGSGSGTDFTLQISRVEAEDLGVYFCLQVTHVPFTFGSGTKLEIK"
